The domain aggregation screens of Martell et al. (2025)

assay: soluble fraction after stress (log2 fold change); higher = more stays soluble; pooled small domains, quantitative proteomics; details: stress: 50 degC
In short: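 Custom libraries of small protein domains were pooled and measured in a high-throughput format, with quantitative proteomics as the read-out. Each library was stressed at 50°C. The value is the log2 fold change in the amount of each protein that stays soluble after stress, used as a measure of aggregation propensity; higher values mean more of the protein stays soluble.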

Sequence | soluble fraction (log2)
HMQPSFFEMIRMVESYIKQHFENVGNEFPEIARAIYYGIEEERNIYGTASREDMEELLDEGIPILPVP | -0.926
HMAKTALEQAQAMVAAYVAAEQQILLGKEVRMGGPGIDRWLRFEDLQEVRAGRKEWESTVTRLQNTAA | -0.404
HMHPELSDSQRTLIALMASGLKDEAIAVEMGVGARTVRRKVQELYELLGVRTRFQAGVAANQRGW | -1.79
HMSPSRRENLTAAAKEYFVNTQIRHKTFGNGVIIKRSGNIAAIRFDNGTIKQIDLIAALQAKVLSIL | 0.168
HMYGTQTVNRGAVQPGMLVKHKDSTWTASANARGRLYLHRGVEMTYTRDLLVEVYLNGLGNGL | 0.102
HMVIIPNILNKYKGLAFRQLEQVGLKIGDTIYEPNIQRDAVLRMQINGRSVQPGDQVMRFSVVDLVIG | -3.21
HMIHIGAQEALGEFQDEEGNLTASKKEVVAALVKKSKEVSFPTSYEYEVAARMAADEYNDAGQRMA | -0.0641
HMEPVQPVMYSEFIESVERGEVVEATIQGDKIIATDRSGNRYTVVGSAKDPQLVGQLLERNVAFKFVEE | 0.00245
HMEEFGRRLKERMIDKNMTEAELAQKTELWSSILTSYLKGERFPGYYTLLRIAEALDVSIDFLLGLRDEPE | -1.54
HMEDYTPLQELGLKARYIELLEKGGIFSVEDLVQKSVDDLKDIDGIGEKTAKEIWEIVDSMVDF | -0.137
HMFRDFSETLLRKLQAAGGFLPFTDKTDAEAIAEHFQVSKKTFKRAVGTLYKQRRILIDDEGITLIG | -0.148
HMLGERIRRLRKEMGMSVTELARRVKTSPSYISEIEKGEKTPSLNLLVRIASELRTGIDYLTGL | -0.294
HMDRELVALVQKALSQLSEQQRRIVELHVMEGMKYLEIADLLQLSENTVRTHLKRAYKILRENH | -1.76
HMLEPGQKVKSVVVDISGDLIYIDLGGKTEGVVELKEFYDEAGEYHVKPGDEIEVFFVSVQNGLKRFTT | -0.0167
HMRLDPENFYIRAVTYYRNGDWQRALSQLDEAIKLGTAIEYPALQARIYLEQGMRDEFIAASEK | -1.71
HMPGTAAQARQLKAWLKENGEKPGAALPALQKAQEIYGYVPREVQQLIADALHKPLTEIYGVSTFYSQFNL | -0.573
HMQEGPGLVPDFRGQTMREVLRGGQSLGVRVAVDGTGLAVAQTPEPGSPLNKVSQVTVSFRPP | 0.0873
HMQELGVISEGKYNIELNMVSWNDREPKYDIRSWAPDHSRMGKGISLTEEEMERLVELWNTRNE | -0.248
HMLAERKERDKAELKELILDAAKKILLKNGQEGLSIRKIATTVEYSPATIYLYFKDKDEILHELMEMG | 0.317

Sequence | soluble fraction (log2)
HMNVESMVGKQGKVVVEIDNISAKGMIKVDGMEWTARSVDGEIIPKDSLVAVVSVEGVKAMVRKAE | 0.163
HMQSVEELLDAIGDERLLHILLEADRKTLQIVVLKMMGYAPKEIGSHIGMPEQTVYTKLRRLREKIKKI | -1.49
HMVEEVDYGTFMRMIEEKNIGKVEVRAGEIVFTDKDEKQIYKTGAMEDATLTQRLYESGAEFSKDV | 0.0146
HMKQHPTIDLQIGQKLHYKEDVFEVTRFAKDKNGQDMVILKDPSIGSGIEIPWYRSKLEEIIESGQYKIT | 0.413
HMRPAAELGLPHAPKHFIQYLTEDDRPQVLKDVDYEGGMGVSIGRLREDSIFDWKFVGLAHNTL | 0.062
HMHAPLEVGSVVRIEGQKALGTILSISDREAIVALGALKTTIPLKRLHGVSPAEAQRHLRKTTPAQAVR | 0.0521
HMERQILFTKEDLIEFGLSGGTDSRKRRDVLGHILGIGYSNSKQFLNRLNNFGVTREEFLSAIERIG | -0.778
HMSKEKQILQLLQHGYSQRRIADTLSVSRNTVAKVAKAAIEHPVSSDSLDSIDELELHQKLFPEEVLI | -0.339
HMENTELIELRKKRNLSQSQLAELLDLTRNQIANYESGRRIPDQETKQIIAGFFEMPAEEIFAG | 0.0435
HMETYTVSSKDGYANVRNEATVNSDLIAELKNGTLVTKFKEKGEWYYIEFEREDGTPFDYGYIHKSQLK | 0.181
HMAMDITLPLAEVRRQSLEQIERQYLNELMSKHLGRINRAAEAAGITTRQLHKLLTKYSIRKEDFK | -0.673
HMISDAEWKIMNVLWEEQPRTMMQITKELQEETGWTKHTVMTYLKRMESKKIIHYVEGEKAKLYYS | -0.0967
HMGNNKLVLSLAVALKNTPNFLKNYNYKISKDKKFIEILLSKQINEVSDIIINLKKNNINIVDLNIKKR | -1.51
HMPIMDSDDKYEALGIPQEWIAVVKKAGYQTVEALKAVENPNKLHQELSVMNKKEKLGLAGLTPEMVKAWL | 0.342
HMHVVVIDKQGALSYQGKAITLLDLKNIVIDVPKETPFLIKADKDIHLQSFVEVLDLIKTAGFKKVSLQ | -0.182
HMAQVVMPNVVGKTEKDATATLEGKNLKVNVEYNLDATSDDGIVKEQSIKSGENIDEGTEITLKVNKV | -1.07
HMDYGSLQRAIENQLEVRNYQKPKKFLTKIIQLMETIMVRHGVMVVGLTGTGKTTVIETLSRSMEQ | -0.302
HMIDLPDIDIDFAKRTGVLEHITHTPARLETGKQHNTGVYFTDIPRGVDGLATMDHKRAEQLGYFKLDML | 0.0268
